Data on seven substances can be found in the supplement of paper PMC5998384.

The test system of data set [1] is HeLa Kyoto. The data set is described as follows: solubility change mitosis vs G1/S (difference of NP-40 vs SDS log2 ratios) (log2 ratio difference); higher = more soluble in mitosis.
Data set [2] deals with HeLa Kyoto. The data set is described as follows: solubility in G1/S (NP-40 vs SDS abundance) (log2 ratio); higher = more soluble. As to conditions: cell cycle stage: G1/S.
The test system of data set [3] is HeLa Kyoto. The data set can be described thus: melting temperature (median over replicates), in situ; higher = more thermally stable.
The subject of data set [4] is HeLa Kyoto. The data set can be described thus: thermal stability score vs G1/S (z-score of summed log2 fold changes over temperatures); higher = more thermally stable than in G1/S.
Where [5] appears, read: cell cycle stage: early G1 (4.5 h after nocodazole release).
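Wherever melting temperature (median over replicates), in situ is given: HeLa Kyoto cells synchronized by double thymidine or nocodazole block, proteins quantified by TMT10plex mass spectrometry, three independent biological replicates.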
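Wherever solubility change mitosis vs G1/S (difference of NP-40 vs SDS log2 ratios) is given: synchronized HeLa Kyoto cells (double thymidine block for G1/S, nocodazole release for mitosis), protein amounts in NP-40 versus SDS lysates quantified by mass spectrometry, three biological replicates.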
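Wherever solubility in G1/S (NP-40 vs SDS abundance) is given: HeLa Kyoto cells arrested at G1/S by double thymidine block, proteins quantified by TMT10plex mass spectrometry in mild NP-40 versus SDS extracts, three biological replicates.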
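Wherever thermal stability score vs G1/S (z-score of summed log2 fold changes over temperatures) is given: synchronized HeLa Kyoto cells, proteins quantified by TMT10plex mass spectrometry, three biological replicates, mitosis taken 0.5 h after nocodazole release, G1/S directly after double thymidine block.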

SAFB2, sequence (chain, as listed by the source): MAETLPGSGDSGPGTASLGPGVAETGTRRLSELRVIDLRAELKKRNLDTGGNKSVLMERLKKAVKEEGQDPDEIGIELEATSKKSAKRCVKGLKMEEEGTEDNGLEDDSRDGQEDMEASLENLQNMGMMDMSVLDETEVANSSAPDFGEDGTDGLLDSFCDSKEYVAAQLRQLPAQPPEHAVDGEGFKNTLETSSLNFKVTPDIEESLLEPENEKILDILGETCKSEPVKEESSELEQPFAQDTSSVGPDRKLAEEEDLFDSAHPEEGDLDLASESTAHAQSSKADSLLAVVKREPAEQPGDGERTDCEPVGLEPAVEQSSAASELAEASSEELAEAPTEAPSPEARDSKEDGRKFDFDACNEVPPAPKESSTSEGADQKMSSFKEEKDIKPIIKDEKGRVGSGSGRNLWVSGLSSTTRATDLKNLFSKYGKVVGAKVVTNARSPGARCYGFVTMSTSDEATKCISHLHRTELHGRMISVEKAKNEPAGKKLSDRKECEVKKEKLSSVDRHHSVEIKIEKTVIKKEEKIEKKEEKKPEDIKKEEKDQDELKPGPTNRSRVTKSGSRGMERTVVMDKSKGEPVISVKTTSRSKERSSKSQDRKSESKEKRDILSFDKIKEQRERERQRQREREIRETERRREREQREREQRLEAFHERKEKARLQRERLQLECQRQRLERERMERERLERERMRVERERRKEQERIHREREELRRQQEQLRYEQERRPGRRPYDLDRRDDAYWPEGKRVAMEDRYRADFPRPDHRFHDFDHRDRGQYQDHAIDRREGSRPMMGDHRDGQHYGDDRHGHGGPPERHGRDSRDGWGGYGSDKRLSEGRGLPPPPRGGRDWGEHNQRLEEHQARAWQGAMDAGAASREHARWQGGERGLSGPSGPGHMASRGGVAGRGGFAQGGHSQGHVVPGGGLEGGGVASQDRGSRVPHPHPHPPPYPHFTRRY

“MAAVAAVAARRRRSWASLVLAFLGVCLGITLAVDRSNFKTCEESSFCKRQRSIRPGLSPYRALLDSLQLGPDSLTVHLIHEVTKVLLVLELQGLQKNMTRFRIDELEPRRPRYRVPDVLVADPPIARLSVSGRDENSVELTMAEGPYKIILTARPFRLDLLEDRSLLLSVNARGLLEFEHQRAPRVSQGSKDPAEGDGAQPEETPRDGDKPEETQGKAEKDEPGAWEETFKTHSDSKPYGPMSVGLDFSLPGMEHVYGIPEHADNLRLKVTEGGEPYRLYNLDVFQYELYNPMALYGSVPVLLAHNPHRDLGIFWLNAAETWVDISSNTAGKTLFGKMMDYLQGSGETPQTDVRWMSETGIIDVFLLLGPSISDVFRQYASLTGTQALPPLFSLGYHQSRWNYRDEADVLEVDQGFDDHNLPCDVIWLDIEHADGKRYFTWDPSRFPQPRTMLERLASKRRKLVAIVDPHIKVDSGYRVHEELRNLGLYVKTRDGSDYEGWCWPGSAGYPDFTNPTMRAWWANMFSYDNYEGSAPNLFVWNDMNEPSVFNGPEVTMLKDAQHYGGWEHRDVHNIYGLYVHMATADGLRQRSGGMERPFVLARAFFAGSQRFGAVWTGDNTAEWDHLKISIPMCLSLGLVGLSFCGADVGGFFKNPEPELLVRWYQMGAYQPFFRAHAHLDTGRREPWLLPSQHNDIIRDALGQRYSLLPFWYTLLYQAHREGIPVMRPLWVQYPQDVTTFNIDDQYLLGDALLVHPVSDSGAHGVQVYLPGQGEVWYDIQSYQKHHGPQTLYLPVTLSSIPVFQRGGTIVPRWMRVRRSSECMKDDPITLFVALSPQGTAQGELFLDDGHTFNYQTRQEFLLRRFSFSGNTLVSSSADPEGHFETPIWIERVVIIGAGKPAAVVLQTKGSPESRLSFQHDPETSVLVLRKPGINVASDWSIHLR [GANAB]”: the “solubility change mitosis (log2)” value in data set [1] is -0.155. Further, the “solubility in G1/S (log2)” value in data set [2] is -0.0187. For the same substance, the results for the melting temperature in data set [3] (cell cycle stage: G1/S) and in data set [3] (cell cycle stage: mitosis) were 53.6 °C and 54.2 °C, respectively. The thermal stability score in data set [4] (setting [5]) was found to be 3.69; in data set [4] (cell cycle stage: mitosis), 5.36.

“MTSSGPGPRFLLLLPLLLPPAASASDRPRGRDPVNPEKLLVITVATAETEGYLRFLRSAEFFNYTVRTLGLGEEWRGGDVARTVGGGQKVRWLKKEMEKYADREDMIIMFVDSYDVILAGSPTELLKKFVQSGSRLLFSAESFCWPEWGLAEQYPEVGTGKRFLNSGGFIGFATTIHQIVRQWKYKDDDDDQLFYTRLYLDPGLREKLSLNLDHKSRIFQNLNGALDEVVLKFDRNRVRIRNVAYDTLPIVVHGNGPTKLQLNYLGNYVPNGWTPEGGCGFCNQDRRTLPGGQPPPRVFLAVFVEQPTPFLPRFLQRLLLLDYPPDRVTLFLHNNEVFHEPHIADSWPQLQDHFSAVKLVGPEEALSPGEARDMAMDLCRQDPECEFYFSLDADAVLTNLQTLRILIEENRKVIAPMLSRHGKLWSNFWGALSPDEYYARSEDYVELVQRKRVGVWNVPYISQAYVIRGDTLRMELPQRDVFSGSDTDPDMAFCKSFRDKGIFLHLSNQHEFGRLLATSRYDTEHLHPDLWQIFDNPVDWKEQYIHENYSRALEGEGIVEQPCPDVYWFPLLSEQMCDELVAEMEHYGQWSGGRHEDSRLAGGYENVPTVDIHMKQVGYEDQWLQLLRTYVGPMTESLFPGYHTKARAVMNFVVRYRPDEQPSLRPHHDSSTFTLNVALNHKGLDYEGGGCRFLRYDCVISSPRKGWALLHPGRLTHYHEGLPTTWGTRYIMVSFVDP [PLOD3]”: the “solubility change mitosis (log2)” value in data set [1] was 0.039. Further, the “solubility in G1/S (log2)” value in data set [2] is -0.074. The melting temperature was 54.2 °C in data set [3] (cell cycle stage: G1/S) and 55 °C in data set [3] (cell cycle stage: mitosis). For the same substance, the thermal stability score in data set [4] (setting [5]) was determined as 2.65; in data set [4] (cell cycle stage: mitosis), 3.82.

Consider “MAAWGRRRLGPGSSGGSARERVSLSATDCYIVHEIYNGENAQDQFEYELEQALEAQYKYIVIEPTRIGDETARWITVGNCLHKTAVLAGTACLFTPLALPLDYSHYISLPAGVLSLACCTLYGISWQFDPCCKYQVEYDAYKLSRLPLHTLTSSTPVVLVRKDDLHRKRLHNTIALAALVYCVKKIYELYAV [TMEM11]”, for which the “solubility change mitosis (log2)” value in data set [1] was -0.0939. Further, the “solubility in G1/S (log2)” value in data set [2] is -0.0105. In addition, the values for the melting temperature in data set [3] (cell cycle stage: G1/S) and in data set [3] (cell cycle stage: mitosis) were 52.2 °C and 51.4 °C, respectively. In addition, the figures for the thermal stability score in data set [4] (setting [5]) and in data set [4] (cell cycle stage: mitosis) were -0.391 and -1.34, respectively.

On to SAFB2, for which, in data set [1], the “solubility change mitosis (log2)” value turned out to be 0.345. In addition, the “solubility in G1/S (log2)” value in data set [2] is -0.828. For the same substance, the melting temperature in data set [3] (cell cycle stage: G1/S) was 50.3 °C; in data set [3] (cell cycle stage: mitosis), 51.4 °C. Also, the thermal stability score in data set [4] (setting [5]) is 0.782; in data set [4] (cell cycle stage: mitosis), 0.916.

For “MSCINLPTVLPGSPSKTRGQIQVILGPMFSGKSTELMRRVRRFQIAQYKCLVIKYAKDTRYSSSFCTHDRNTMEALPACLLRDVAQEALGVAVIGIDEGQFFPDIVEFCEAMANAGKTVIVAALDGTFQRKPFGAILNLVPLAESVVKLTAVCMECFREAAYTKRLGTEKEVEVIGGADKYHSVCRLCYFKKASGQPAGPDNKENCPVPGKPGEAVAARKLFAPQQILQCSPAN [TK1]”, the “solubility change mitosis (log2)” value in data set [1] was -0.138. Besides, the “solubility in G1/S (log2)” value in data set [2] was 0.28. The melting temperature in data set [3] (cell cycle stage: G1/S) was 56.1 °C; in data set [3] (cell cycle stage: mitosis) it was 57.3 °C. Besides, the values for the thermal stability score in data set [4] (setting [5]) and in data set [4] (cell cycle stage: mitosis) were -4.01 and -1.09, respectively.

With “MWRCGGRQGLCVLRRLSGGHAHHRAWRWNSNRACERALQYKLGDKIHGFTVNQVTSVPELFLTAVKLTHDDTGARYLHLAREDTNNLFSVQFRTTPMDSTGVPHILEHTVLCGSQKYPCRDPFFKMLNRSLSTFMNAFTASDYTLYPFSTQNPKDFQNLLSVYLDATFFPCLRELDFWQEGWRLEHENPSDPQTPLVFKGVVFNEMKGAFTDNERIFSQHLQNRLLPDHTYSVVSGGDPLCIPELTWEQLKQFHATHYHPSNARFFTYGNFPLEQHLKQIHEEALSKFQKIEPSTVVPAQTPWDKPREFQITCGPDSFATDPSKQTTISVSFLLPDITDTFEAFTLSLLSSLLTSGPNSPFYKALIESGLGTDFSPDVGYNGYTREAYFSVGLQGIAEKDIETVRSLIDRTIDEVVEKGFEDDRIEALLHKIEIQMKHQSTSFGLMLTSYIASCWNHDGDPVELLKLGNQLAKFRQCLQENPKFLQEKVKQYFKNNQHKLTLSMRPDDKYHEKQAQVEATKLKQKVEALSPGDRQQIYEKGLELRSQQSKPQDASCLPALKVSDIEPTIPVTELDVVLTAGDIPVQYCAQPTNGMVYFRAFSSLNTLPEELRPYVPLFCSVLTKLGCGLLDYREQAQQIELKTGGMSASPHVLPDDSHMDTYEQGVLFSSLCLDRNLPDMMQLWSEIFNNPCFEEEEHFKVLVKMTAQELANGIPDSGHLYASIRAGRTLTPAGDLQETFSGMDQVRLMKRIAEMTDIKPILRKLPRIKKHLLNGDNMRCSVNATPQQMPQTEKAVEDFLRSIGRSKKERRPVRPHTVEKPVPSSSGGDAHVPHGSQVIRKLVMEPTFKPWQMKTHFLMPFPVNYVGECIRTVPYTDPDHASLKILARLMTAKFLHTEIREKGGAYGGGAKLSHNGIFTLYSYRDPNTIETLQSFGKAVDWAKSGKFTQQDIDEAKLSVFSTVDAPVAPSDKGMDHFLYGLSDEMKQAHREQLFAVSHDKLLAVSDRYLGTGKSTHGLAILGPENPKIAKDPSWIIQ [PITRM1]”, the “solubility change mitosis (log2)” value in data set [1] is -0.084. The “solubility in G1/S (log2)” value in data set [2] worked out at 0.143. In addition, the melting temperature in data set [3] (cell cycle stage: G1/S) is 51.4 °C; in data set [3] (cell cycle stage: mitosis), 50.9 °C. Moreover, the thermal stability score is 0.343 in data set [4] (setting [5]) and -0.944 in data set [4] (cell cycle stage: mitosis).

With “MAAIRMGKLTTMPAGLIYASVSVHAAKQEESKKQLVKPEQLPIYTAPPLQSKYVEEQPGHLQMGFASIRTATGCYIGWCKGVYVFVKNGIMDTVQFGKDAYVYLKNPPRDFLPKMGVITVSGLAGLVSARKGSKFKKITYPLGLATLGATVCYPVQSVIIAKVTAKKVYATSQQIFGAVKSLWTKSSKEESLPKPKEKTKLGSSSEIEVPAKTTHVLKHSVPLPTELSSEAKTKSESTSGATQFMPDPKLMDHGQSHPEDIDMYSTRS [APOOL]”, the “solubility change mitosis (log2)” value in data set [1] is -0.104. Further, the “solubility in G1/S (log2)” value in data set [2] came out at 0.166. The values for the melting temperature in data set [3] (cell cycle stage: G1/S) and in data set [3] (cell cycle stage: mitosis) were 53.9 °C and 57.3 °C, respectively. The thermal stability score in data set [4] (setting [5]) was -1.29; in data set [4] (cell cycle stage: mitosis), -2.35.
